{
  "source": "patent US20240270846A1",
  "about": "(published 2024)",
  "data": [
    {"molecular_target": "T1, CD3 epsilon homodimer protein (UniProt P07766 23-126)", "T1 construct": "Immobilized on Sensor chip CM4 by amine coupling; construct not described; also called CD3 (CD3 epsilon)", "T1 sequence (P07766 23-126)": "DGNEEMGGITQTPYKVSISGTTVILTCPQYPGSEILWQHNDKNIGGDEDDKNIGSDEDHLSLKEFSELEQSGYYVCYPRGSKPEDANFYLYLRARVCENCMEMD", "assay": "SPR Biacore T200, CD3 epsilon homodimer on CM4 chip, antibody as analyte;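 further: Amine-coupled CD3 epsilon homodimer, run at 25 °C in HBS-EP+ buffer, ratio is bound amount of each single-residue H chain variant over that of the parent antibody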", "values": [
      {"binder": "CE115HA000 G98S one-arm antibody (antibody, human IgG1, kappa, L234A L235A, N297A, name in Kabat numbering, one-arm antibody (one Fab)) heavy: QVQLVESGGGVVQPGRSLRLSCAASGFTFSNAWMHWVRQAPGKGLEWVAQIKAKSNNYATYYAESVKGRFTISRDDSKNSLYLQMNSLKTEDTAVYYCRYVHYSAYYGVDAWGQGTTVTVSSASTKGPSVFPLAPSSKSTSGGTAALGCLVKDYFPEPVTVSWNSGALTSGVHTFPAVLQSSGLYSLSSVVTVPSSSLGTQTYICNVNHKPSNTKVDKKVEPKSCDKTHTCPPCPAPEAAGGPSVFLFPPKPKDTLMISRTPEVTCVVVDVSHEDPEVKFNWYVDGVEVHNAKTKPREEQYASTYRVVSVLTVLHQDWLNGKEYKCKVSNKALPAPIEKTISKAKGQPREPQVYTLPPSRCELTKNQVSLSCAVKGFYPSDIAVEWESNGQPENNYKTTPPVLDSDGSFFLVSKLTVDKSRWQQGNVFSCSVMHEALHNHYTQKSLSLSPDYKDDDDK EPKSSDKTHTCPPCPAPELLGGPSVFLFPPKPKDTLMISRTPEVTCVVVDVSHEDPEVKFNWYVDGVEVHNAKTKPREEQYNSTYRVVSVLTVLHQDWLNGKEYKCKVSNKALPAPIEKTISKAKGQPREPQVCTLPPSRDELTKNQVSLWCLVKGFYPSDIAVEWESNGQPENNYKTTPPVLDSDGSFFLYSKLTVDKSRWQQGNVFSCSVMHEALHNRYTQKSLSLSP light: DIVMTQSPLSLPVTPGEPASISCRSSQSLVHSNRNTYLHWYQQKPGQAPRLLIYKVSNRFSGVPDRFSGSGSGTDFTLKISRVEAEDVGVYYCGQGTQVPYTFGQGTKLEIKRTVAAPSVFIFPPSDEQLKSGTASVVCLLNNFYPREAKVQWKVDNALQSGNSQESVTEQDSKDSTYSLSSTLTLSKADYEKHKVYACEVTHQGLSSPVTKSFNRGEC", "ratio of amounts bound (Y/X vs CE115HA000)": 1.01},
      {"binder": "CE115HA000 G98T one-arm antibody (antibody, human IgG1, kappa, L234A L235A, N297A, name in Kabat numbering, one-arm antibody (one Fab)) heavy: QVQLVESGGGVVQPGRSLRLSCAASGFTFSNAWMHWVRQAPGKGLEWVAQIKAKSNNYATYYAESVKGRFTISRDDSKNSLYLQMNSLKTEDTAVYYCRYVHYTAYYGVDAWGQGTTVTVSSASTKGPSVFPLAPSSKSTSGGTAALGCLVKDYFPEPVTVSWNSGALTSGVHTFPAVLQSSGLYSLSSVVTVPSSSLGTQTYICNVNHKPSNTKVDKKVEPKSCDKTHTCPPCPAPEAAGGPSVFLFPPKPKDTLMISRTPEVTCVVVDVSHEDPEVKFNWYVDGVEVHNAKTKPREEQYASTYRVVSVLTVLHQDWLNGKEYKCKVSNKALPAPIEKTISKAKGQPREPQVYTLPPSRCELTKNQVSLSCAVKGFYPSDIAVEWESNGQPENNYKTTPPVLDSDGSFFLVSKLTVDKSRWQQGNVFSCSVMHEALHNHYTQKSLSLSPDYKDDDDK EPKSSDKTHTCPPCPAPELLGGPSVFLFPPKPKDTLMISRTPEVTCVVVDVSHEDPEVKFNWYVDGVEVHNAKTKPREEQYNSTYRVVSVLTVLHQDWLNGKEYKCKVSNKALPAPIEKTISKAKGQPREPQVCTLPPSRDELTKNQVSLWCLVKGFYPSDIAVEWESNGQPENNYKTTPPVLDSDGSFFLYSKLTVDKSRWQQGNVFSCSVMHEALHNRYTQKSLSLSP light: DIVMTQSPLSLPVTPGEPASISCRSSQSLVHSNRNTYLHWYQQKPGQAPRLLIYKVSNRFSGVPDRFSGSGSGTDFTLKISRVEAEDVGVYYCGQGTQVPYTFGQGTKLEIKRTVAAPSVFIFPPSDEQLKSGTASVVCLLNNFYPREAKVQWKVDNALQSGNSQESVTEQDSKDSTYSLSSTLTLSKADYEKHKVYACEVTHQGLSSPVTKSFNRGEC", "ratio of amounts bound (Y/X vs CE115HA000)": 1.05},
      {"binder": "CE115HA000 G98Y one-arm antibody (antibody, human IgG1, kappa, L234A L235A, N297A, name in Kabat numbering, one-arm antibody (one Fab)) heavy: QVQLVESGGGVVQPGRSLRLSCAASGFTFSNAWMHWVRQAPGKGLEWVAQIKAKSNNYATYYAESVKGRFTISRDDSKNSLYLQMNSLKTEDTAVYYCRYVHYYAYYGVDAWGQGTTVTVSSASTKGPSVFPLAPSSKSTSGGTAALGCLVKDYFPEPVTVSWNSGALTSGVHTFPAVLQSSGLYSLSSVVTVPSSSLGTQTYICNVNHKPSNTKVDKKVEPKSCDKTHTCPPCPAPEAAGGPSVFLFPPKPKDTLMISRTPEVTCVVVDVSHEDPEVKFNWYVDGVEVHNAKTKPREEQYASTYRVVSVLTVLHQDWLNGKEYKCKVSNKALPAPIEKTISKAKGQPREPQVYTLPPSRCELTKNQVSLSCAVKGFYPSDIAVEWESNGQPENNYKTTPPVLDSDGSFFLVSKLTVDKSRWQQGNVFSCSVMHEALHNHYTQKSLSLSPDYKDDDDK EPKSSDKTHTCPPCPAPELLGGPSVFLFPPKPKDTLMISRTPEVTCVVVDVSHEDPEVKFNWYVDGVEVHNAKTKPREEQYNSTYRVVSVLTVLHQDWLNGKEYKCKVSNKALPAPIEKTISKAKGQPREPQVCTLPPSRDELTKNQVSLWCLVKGFYPSDIAVEWESNGQPENNYKTTPPVLDSDGSFFLYSKLTVDKSRWQQGNVFSCSVMHEALHNRYTQKSLSLSP light: DIVMTQSPLSLPVTPGEPASISCRSSQSLVHSNRNTYLHWYQQKPGQAPRLLIYKVSNRFSGVPDRFSGSGSGTDFTLKISRVEAEDVGVYYCGQGTQVPYTFGQGTKLEIKRTVAAPSVFIFPPSDEQLKSGTASVVCLLNNFYPREAKVQWKVDNALQSGNSQESVTEQDSKDSTYSLSSTLTLSKADYEKHKVYACEVTHQGLSSPVTKSFNRGEC", "ratio of amounts bound (Y/X vs CE115HA000)": 2.22},
      {"binder": "CE115HA000 G100bD one-arm antibody (antibody, human IgG1, kappa, L234A L235A, N297A, name in Kabat numbering, one-arm antibody (one Fab)) heavy: QVQLVESGGGVVQPGRSLRLSCAASGFTFSNAWMHWVRQAPGKGLEWVAQIKAKSNNYATYYAESVKGRFTISRDDSKNSLYLQMNSLKTEDTAVYYCRYVHYGAYYDVDAWGQGTTVTVSSASTKGPSVFPLAPSSKSTSGGTAALGCLVKDYFPEPVTVSWNSGALTSGVHTFPAVLQSSGLYSLSSVVTVPSSSLGTQTYICNVNHKPSNTKVDKKVEPKSCDKTHTCPPCPAPEAAGGPSVFLFPPKPKDTLMISRTPEVTCVVVDVSHEDPEVKFNWYVDGVEVHNAKTKPREEQYASTYRVVSVLTVLHQDWLNGKEYKCKVSNKALPAPIEKTISKAKGQPREPQVYTLPPSRCELTKNQVSLSCAVKGFYPSDIAVEWESNGQPENNYKTTPPVLDSDGSFFLVSKLTVDKSRWQQGNVFSCSVMHEALHNHYTQKSLSLSPDYKDDDDK EPKSSDKTHTCPPCPAPELLGGPSVFLFPPKPKDTLMISRTPEVTCVVVDVSHEDPEVKFNWYVDGVEVHNAKTKPREEQYNSTYRVVSVLTVLHQDWLNGKEYKCKVSNKALPAPIEKTISKAKGQPREPQVCTLPPSRDELTKNQVSLWCLVKGFYPSDIAVEWESNGQPENNYKTTPPVLDSDGSFFLYSKLTVDKSRWQQGNVFSCSVMHEALHNRYTQKSLSLSP light: DIVMTQSPLSLPVTPGEPASISCRSSQSLVHSNRNTYLHWYQQKPGQAPRLLIYKVSNRFSGVPDRFSGSGSGTDFTLKISRVEAEDVGVYYCGQGTQVPYTFGQGTKLEIKRTVAAPSVFIFPPSDEQLKSGTASVVCLLNNFYPREAKVQWKVDNALQSGNSQESVTEQDSKDSTYSLSSTLTLSKADYEKHKVYACEVTHQGLSSPVTKSFNRGEC", "ratio of amounts bound (Y/X vs CE115HA000)": 0.27}
    ]}
  ]
}
